Biological target: the molecule itself
Experiment: negative-stain electron microscopy

B1: desmin (natural protein, chicken, UniProt P02542 1-464, looked up)
chain: MSQSYSSSQRVSSYRRTFGGGTSPVFPRASFGSRGSGSSVTSRVYQVSRTSAVPTLSTFRTTRVTPLRTYQSAYQGAGELLDFSLADAMNQEFLQTRTNEKVELQELNDRFANYIEKVRFLEQQNALMVAEVNRLRGKEPTRVAEMYEEELRELRRQVDALTGQRARVEVERDNLLDDLQKLKQRLQEEIQLKEEAENNLAAFRADVDAATLARIDLERRIESLQEEIAFLKKVHEEEIRELQAQLQEQHIQVEMDISKPDLTAALRDIRAQYESIAAKNIAEAEEWYKSKVSDLTQAANKNNDALRQAKQEMLEYRHQIQSYTCEIDALKGTNDSLMRQMREMEERFAGEAGGYQDTIARLEEEIRHLKDEMARHLREYQDLLNVKMALDVEIATYRKLLEGEENRISIPMHQTFASALNFRETSPDQRGSEVHTKKTVMIKTIETRDGEVVSEATQQQHEVL
B1: binds.
